# Measurements reported in US20160060360A1.
# Molecular target: recombinant human FcγRIIb protein (R&D Systems) (human) (UniProt P31994)
# Assay: Biacore, 'according to the data herein'
# recombinant human FcγRIIb protein (R&D Systems) (human), sequence (P31994 46-217 limits assumed): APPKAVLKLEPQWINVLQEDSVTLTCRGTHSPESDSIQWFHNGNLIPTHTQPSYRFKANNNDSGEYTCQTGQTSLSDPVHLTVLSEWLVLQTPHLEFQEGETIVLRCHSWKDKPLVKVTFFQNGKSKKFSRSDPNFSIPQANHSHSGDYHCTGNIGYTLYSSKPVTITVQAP
row,Kd [µM],Substance
1,2,"anti-CD19 antibody HuAM4G7, WT (native) IgG1"

# Molecular target: recombinant human FcγRIIb protein (R&D Systems) (human) (UniProt P31994)
# Assay: SPR (Biacore 3000), antibody captured on protein A/G chip, FcγR injected, 1:1 Langmuir fit
row,Kd [µM],Substance
1,1.8,"anti-CD19 antibody HuAM4G7, WT (native) IgG1"

# Molecular target: FcγRIIIaF
# Assay: SPR
row,Kd [µM],Substance
1,5.11,L328F

# Molecular target: FcγRIIaR
# Assay: SPR
row,Kd [µM],Substance
1,0.536,A327D
2,2.69,A327G
3,1.41,A327N
4,1.35,A327Q
5,2.79,D265E
6,0.205,H268D
7,0.269,H268E
8,0.481,H268N
9,0.544,H268Q
10,0.166,L328F
11,10,P329E
12,0.00206,S239D/S267E/L328F
13,1.25,S239E
14,0.99,S239N
15,1.01,S239Q
16,0.2,S267A

row,Kd [µM],Substance
1,0.0955,S267D
2,0.0291,S267E
3,0.0513,S267E/A327D
4,0.0293,S267E/A327E
5,0.0206,S267E/H268E
6,0.0034,S267E/H268E/L328F
7,0.185,S267E/L328H
8,0.0116,S267E/L328I
9,0.00706,S267E/L328Y
10,0.0207,S267E/N325L
11,0.517,S267G
12,0.592,S298D
13,1.22,V266D
14,0.274,V266M
15,0.028,V266M/S267E
